Data: patent US20230002480A1

Experiments:
Assay in all cases: cell-based or functional assay
[1] = target: HIV-1 Env of pseudovirus R2184.c04 (HIV-1)
[2] = target: HIV-1 Env of pseudovirus X1254_c3 (HIV-1)
[3] = target: HIV-1 Env of pseudovirus CAP210.2.00.E8 (HIV-1)
[4] = target: HIV-1 Env of pseudovirus HIV-16055-2.3 (HIV-1)
[5] = target: HIV-1 Env of pseudovirus 246F C1G (HIV-1)
[6] = target: HIV-1 Env of pseudovirus CNE8 (HIV-1)
[7] = target: HIV-1 Env of pseudovirus 191084 B7-19 (HIV-1)
[8] = target: HIV-1 Env of pseudovirus REJO4541.67 (HIV-1)
[9] = target: HIV-1 Env of pseudovirus C3347.c11 (HIV-1)
[10] = target: HIV-1 Env of pseudovirus Ce0393_C3 (HIV-1)
[11] = target: HIV-1 Env of pseudovirus 6535.3 (HIV-1)
[12] = target: HIV-1 Env of pseudovirus R3265.c06 (HIV-1)
[13] = target: HIV-1 Env of pseudovirus CNE58 (HIV-1)
[14] = target: HIV-1 Env of pseudovirus CAAN5342.A2 (HIV-1)
[15] = target: HIV-1 Env of pseudovirus Ce704809221_1B3 (HIV-1)
[16] = target: HIV-1 Env of pseudovirus ZM233M.PB6 (HIV-1)
[17] = target: HIV-1 Env of pseudovirus 1056_10_TA11_1826 (HIV-1)
[18] = target: HIV-1 Env of pseudovirus 235-47 (HIV-1)
[19] = target: HIV-1 Env of pseudovirus Q842.d12 (HIV-1)
[20] = target: HIV-1 Env of pseudovirus 1054_07_TC4_1499 (HIV-1)
[21] = target: HIV-1 Env of pseudovirus 62357_14_D3_4589 (HIV-1)
[22] = target: HIV-1 Env of pseudovirus T251-18 (HIV-1)
[23] = target: HIV-1 Env of pseudovirus X1193_c1 (HIV-1)
[24] = target: HIV-1 Env of pseudovirus Ce703010054_2A2 (HIV-1)
[25] = target: HIV-1 Env of pseudovirus 7030102001E5(Rev-) (HIV-1)
[26] = target: HIV-1 Env of pseudovirus Du172.17 (HIV-1)
[27] = target: HIV-1 Env of pseudovirus C1080.c03 (HIV-1)
[28] = target: HIV-1 Env of pseudovirus 620345.c01 (HIV-1)
[29] = target: HIV-1 Env of pseudovirus Ce0682_E4 (HIV-1)
[30] = target: HIV-1 Env of pseudovirus Q259.d2.17 (HIV-1)
[31] = target: HIV-1 Env of pseudovirus HIV-001428-2.42 (HIV-1)
[32] = target: HIV-1 Env of pseudovirus 249M B10 (HIV-1)
[33] = target: HIV-1 Env of pseudovirus BJOX009000.02.4 (HIV-1)

## N49P7 (antibody)
[1]
  neutralization IC50: 0.011 µg/mL
  neutralization IC80: 0.031 µg/mL
  neutralization MPI: 100
[2]
  neutralization IC50: 2.97 µg/mL
  neutralization IC80: 13.6 µg/mL
  neutralization MPI: 100
[3]
  neutralization IC50: 1.82 µg/mL
  neutralization IC80: 6.49 µg/mL
  neutralization MPI: 100
[4]
  neutralization IC50: 0.057 µg/mL
  neutralization IC80: 0.28 µg/mL
  neutralization MPI: 100
[5]
  neutralization IC50: 0.094 µg/mL
  neutralization IC80: 0.255 µg/mL
  neutralization MPI: 100
[6]
  neutralization IC50: 0.037 µg/mL
  neutralization IC80: 0.125 µg/mL
  neutralization MPI: 100
[7]
  neutralization IC50: 0.047 µg/mL
  neutralization IC80: 0.142 µg/mL
  neutralization MPI: 100
[8]
  neutralization IC50: 0.015 µg/mL
  neutralization IC80: 0.049 µg/mL
  neutralization MPI: 100
[9]
  neutralization IC50: 0.024 µg/mL
  neutralization IC80: 0.067 µg/mL
  neutralization MPI: 100
[10]
  neutralization IC50: 0.195 µg/mL
  neutralization IC80: 0.802 µg/mL
  neutralization MPI: 100
[11]
  neutralization IC50: 0.186 µg/mL
  neutralization IC80: 0.598 µg/mL
  neutralization MPI: 100
[12]
  neutralization IC50: 0.048 µg/mL
  neutralization IC80: 0.282 µg/mL
  neutralization MPI: 100
[13]
  neutralization IC50: 0.029 µg/mL
  neutralization IC80: 0.067 µg/mL
  neutralization MPI: 100
[14]
  neutralization IC50: 0.409 µg/mL
  neutralization IC80: 1.21 µg/mL
  neutralization MPI: 100
[15]
  neutralization IC50: 0.141 µg/mL
  neutralization IC80: 0.932 µg/mL
  neutralization MPI: 100
[16]
  neutralization IC50: 0.226 µg/mL
  neutralization IC80: 0.774 µg/mL
  neutralization MPI: 100
[17]
  neutralization IC50: 0.141 µg/mL
  neutralization IC80: 0.468 µg/mL
  neutralization MPI: 100
[18]
  neutralization IC50: 0.045 µg/mL
  neutralization IC80: 0.3 µg/mL
  neutralization MPI: 99
[19]
  neutralization IC50: 0.021 µg/mL
  neutralization IC80: 0.06 µg/mL
  neutralization MPI: 100
[20]
  neutralization IC50: 0.494 µg/mL
  neutralization IC80: 2.31 µg/mL
  neutralization MPI: 100
[21]
  neutralization IC50: 0.025 µg/mL
  neutralization IC80: 0.102 µg/mL
  neutralization MPI: 100
[22]
  neutralization IC50: 0.178 µg/mL
  neutralization IC80: 0.62 µg/mL
  neutralization MPI: 100
[23]
  neutralization IC50: 0.016 µg/mL
  neutralization IC80: 0.06 µg/mL
  neutralization MPI: 100
[24]
  neutralization IC50: 0.132 µg/mL
  neutralization IC80: 0.466 µg/mL
  neutralization MPI: 100
[25]
  neutralization IC50: 0.184 µg/mL
  neutralization IC80: 0.832 µg/mL
  neutralization MPI: 100
[26]
  neutralization IC50: 0.102 µg/mL
  neutralization IC80: 0.668 µg/mL
  neutralization MPI: 100
[27]
  neutralization IC50: 0.114 µg/mL
  neutralization IC80: 0.765 µg/mL
  neutralization MPI: 100
[28]
  neutralization IC50: 23.2 µg/mL
  neutralization IC80: 47.9 µg/mL
  neutralization MPI: 82
[29]
  neutralization IC50: 0.041 µg/mL
  neutralization IC80: 0.131 µg/mL
  neutralization MPI: 100
[30]
  neutralization IC50: 0.332 µg/mL
  neutralization IC80: 2.47 µg/mL
  neutralization MPI: 98
[31]
  neutralization IC50: 6 ng/mL
  neutralization IC80: 0.02 µg/mL
  neutralization MPI: 100
[32]
  neutralization IC50: 0.081 µg/mL
  neutralization IC80: 0.377 µg/mL
  neutralization MPI: 100
[33]
  neutralization IC50: 0.113 µg/mL
  neutralization IC80: 0.506 µg/mL
  neutralization MPI: 100

## N49P7.1 (antibody)
[1]
  neutralization IC50: 0.018 µg/mL
  neutralization IC80: 0.04 µg/mL
  neutralization MPI: 100
[2]
  neutralization IC50: 3.96 µg/mL
  neutralization IC80: 18.2 µg/mL
  neutralization MPI: 96
[3]
  neutralization IC50: 2.03 µg/mL
  neutralization IC80: 7.3 µg/mL
  neutralization MPI: 99
[4]
  neutralization IC50: 0.088 µg/mL
  neutralization IC80: 0.318 µg/mL
  neutralization MPI: 100
[5]
  neutralization IC50: 0.049 µg/mL
  neutralization IC80: 0.165 µg/mL
  neutralization MPI: 100
[6]
  neutralization IC50: 0.048 µg/mL
  neutralization IC80: 0.167 µg/mL
  neutralization MPI: 100
[7]
  neutralization IC50: 0.069 µg/mL
  neutralization IC80: 0.2 µg/mL
  neutralization MPI: 100
[8]
  neutralization IC50: 0.022 µg/mL
  neutralization IC80: 0.088 µg/mL
  neutralization MPI: 100
[9]
  neutralization IC50: 0.048 µg/mL
  neutralization IC80: 0.161 µg/mL
  neutralization MPI: 100
[10]
  neutralization IC50: 0.23 µg/mL
  neutralization IC80: 1.02 µg/mL
  neutralization MPI: 100
[11]
  neutralization IC50: 0.224 µg/mL
  neutralization IC80: 0.715 µg/mL
  neutralization MPI: 100
[12]
  neutralization IC50: 0.059 µg/mL
  neutralization IC80: 0.328 µg/mL
  neutralization MPI: 100
[13]
  neutralization IC50: 0.049 µg/mL
  neutralization IC80: 0.107 µg/mL
  neutralization MPI: 100
[14]
  neutralization IC50: 0.55 µg/mL
  neutralization IC80: 1.59 µg/mL
  neutralization MPI: 100
[15]
  neutralization IC50: 0.211 µg/mL
  neutralization IC80: 1.35 µg/mL
  neutralization MPI: 100
[16]
  neutralization IC50: 0.355 µg/mL
  neutralization IC80: 1.25 µg/mL
  neutralization MPI: 100
[17]
  neutralization IC50: 0.171 µg/mL
  neutralization IC80: 0.603 µg/mL
  neutralization MPI: 100
[18]
  neutralization IC50: 0.078 µg/mL
  neutralization IC80: 0.419 µg/mL
  neutralization MPI: 97
[19]
  neutralization IC50: 0.028 µg/mL
  neutralization IC80: 0.08 µg/mL
  neutralization MPI: 100
[20]
  neutralization IC50: 0.627 µg/mL
  neutralization IC80: 2.98 µg/mL
  neutralization MPI: 100
[21]
  neutralization IC50: 0.028 µg/mL
  neutralization IC80: 0.15 µg/mL
  neutralization MPI: 100
[22]
  neutralization IC50: 0.229 µg/mL
  neutralization IC80: 0.794 µg/mL
  neutralization MPI: 100
[23]
  neutralization IC50: 0.035 µg/mL
  neutralization IC80: 0.144 µg/mL
  neutralization MPI: 100
[24]
  neutralization IC50: 0.085 µg/mL
  neutralization IC80: 0.364 µg/mL
  neutralization MPI: 100
[25]
  neutralization IC50: 0.11 µg/mL
  neutralization IC80: 0.498 µg/mL
  neutralization MPI: 100
[26]
  neutralization IC50: 0.185 µg/mL
  neutralization IC80: 0.748 µg/mL
  neutralization MPI: 100
[27]
  neutralization IC50: 0.144 µg/mL
  neutralization IC80: 1.05 µg/mL
  neutralization MPI: 100
[28]
  neutralization IC50: > 50 µg/mL
  neutralization IC80: > 50 µg/mL
  neutralization MPI: 47
[29]
  neutralization IC50: 0.026 µg/mL
  neutralization IC80: 0.099 µg/mL
  neutralization MPI: 100
[30]
  neutralization IC50: 0.505 µg/mL
  neutralization IC80: 4.23 µg/mL
  neutralization MPI: 97
[31]
  neutralization IC50: 9 ng/mL
  neutralization IC80: 0.029 µg/mL
  neutralization MPI: 100
[32]
  neutralization IC50: 0.053 µg/mL
  neutralization IC80: 0.225 µg/mL
  neutralization MPI: 100
[33]
  neutralization IC50: 0.219 µg/mL
  neutralization IC80: 0.756 µg/mL
  neutralization MPI: 100
